This is an account of results in PMC10081965 (Structure (London, England : 1993), 2023).

For experiment [1], the target named is UBQLN2 (UniProt Q9UHD9 1-624). Put plainly: recruitment to biomolecular condensates in vitro.
The target of experiment [2] is UBQLN2 UBL (26–103) (UniProt Q9UHD9 26-103). Briefly: NMR titration.
Chain of UBQLN2 UBL (26–103) (Q9UHD9 26-103): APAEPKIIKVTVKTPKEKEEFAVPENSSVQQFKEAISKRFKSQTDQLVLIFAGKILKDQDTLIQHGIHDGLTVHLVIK

B1: AZUL-mEGFP (E6AP isoform II 24–87 with a C-terminal mEGFP) (domain or fragment, UniProt Q05086 24-87, looked up)
chain: MKRAAAKHLIERYYHQLTEGCGNEACTNEFCASCPTFLRMDNNAAAIKALELYKINAKLCDPHP
B1: in experiment [1], the binding result was “binds”.

B2: UBQLN1 (514–589, F547Y) (domain or fragment, UniProt Q9UMX0 514-589, looked up)
chain: TAGTTEPGHQQFIQQMLQALAGVNPQLQNPEVRYQQQLEQLSAMGFLNREANLQALIATGGDINAAIERLLGSQPS
In the case of B2, in experiment [2], the binding result is listed as “binds”.
